Experimental data as given in publication PMC3149827 (2011).
Each block holds one molecule with its values, some of them ahead of it.

Columns and labels:
[1] = molecular target: Soluble expressed urokinase plasminogen activator receptor; assay: SPR
gC1qR (Homo sapiens) = gC1qR (Homo sapiens) (UniProt Q07021); details: cited from earlier work
cytokeratin 1 = molecular target: T1, cytokeratin 1 (Homo sapiens, UniProt P04264); assay: SPR
T1 chain: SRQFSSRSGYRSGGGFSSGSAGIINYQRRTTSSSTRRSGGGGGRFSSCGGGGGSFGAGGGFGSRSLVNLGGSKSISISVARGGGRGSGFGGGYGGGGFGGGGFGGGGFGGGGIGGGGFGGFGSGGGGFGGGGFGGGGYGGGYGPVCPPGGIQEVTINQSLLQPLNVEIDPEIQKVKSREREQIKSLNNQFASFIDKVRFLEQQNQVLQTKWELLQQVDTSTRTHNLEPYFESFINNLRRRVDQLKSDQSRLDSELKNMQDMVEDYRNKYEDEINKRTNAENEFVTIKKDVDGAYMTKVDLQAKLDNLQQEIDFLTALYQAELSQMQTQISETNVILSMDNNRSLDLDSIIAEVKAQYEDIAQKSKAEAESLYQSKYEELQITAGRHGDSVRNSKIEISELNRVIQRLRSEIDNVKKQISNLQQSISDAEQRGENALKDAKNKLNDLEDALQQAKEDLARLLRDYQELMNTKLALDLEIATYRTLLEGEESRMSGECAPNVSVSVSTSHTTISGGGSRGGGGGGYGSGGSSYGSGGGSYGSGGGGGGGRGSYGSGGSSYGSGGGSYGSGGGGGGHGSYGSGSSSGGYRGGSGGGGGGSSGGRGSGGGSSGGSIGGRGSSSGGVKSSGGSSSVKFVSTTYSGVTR

Sequence of gC1qR (Homo sapiens) (Q07021 74-282): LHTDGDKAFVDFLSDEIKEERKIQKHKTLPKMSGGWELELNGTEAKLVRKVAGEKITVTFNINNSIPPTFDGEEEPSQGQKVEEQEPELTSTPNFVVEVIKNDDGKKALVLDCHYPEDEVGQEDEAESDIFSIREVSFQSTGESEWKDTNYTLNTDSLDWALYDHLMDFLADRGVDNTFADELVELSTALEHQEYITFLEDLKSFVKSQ

Kd [1]: 0.1 to 1 nM
Molecule: Single-chain urokinase-type plasminogen activator (ligand)

Molecule: cleaved high-molecular-weight kininogen (HKa) (from UniProt P01042)
Kd (gC1qR (Homo sapiens)): 9 nM

Kd (cytokeratin 1): ~10 nM
B1: high-molecular-weight kininogen (HK/HKa) (protein)
chain: QESQSEEIDCNDKDLFKAVDAALKKYNSQNQSNNQFVLYRITEATKTVGSDTFYSFKYEIKEGDCPVQSGKTWQDCEYKDAAKAATGECTATVGKRSSTKFSVATQTCQITPAEGPVVTAQYDCLGCVHPISTQSPDLEPILRHGIQYFNNNTQHSSLFMLNEVKRAQRQVVAGLNFRITYSIVQTNCSKENFLFLTPDCKSLWNGDTGECTDNAYIDIQLRIASFSQNCDIYPGKDFVQPPTKICVGCPRDIPTNSPELEETLTHTITKLNAENNATFYFKIDNVKKARVQVVAGKKYFIDFVARETTCSKESNEELTESCETKKLGQSLDCNAEVYVVPWEKKIYPTVNCQPLGMISLMKRPPGFSPFRSSRIGEIKEETTVSPPHTSMAPAQDEERDSGKEQGHTRRHDWGHEKQRKHNLGHGHKHERDQGHGHQRGHGLGHGHEQQHGLGHGHKFKLDDDLEHQGGHVLDHGHKHKHGHGHGKHKNKGKKNGKHNGWKTEHLASSSEDSTTPSAQTQEKTEGPTPIPSLAKPGVTVTFSDFQDSDLIATMMPPISPAPIQSDDDWIPDIQIDPNGLSFNPISDFPDTTSPKCPGRPWKSVSEINPTTQMKESYYFDLTDGLS
modifications: Zn2+
